Among the data in PMC2042504 are percent of the radioactivity in the oligomer peak, stoichiometry N and FRET efficiency values, retold here.

Experiment [1] concerns the target 35S-labeled Vpu TM domain, in vitro translated (gel permeation) (HIV-1, isolate not stated (NL4-3 and R5 cloned)). The experiment in a line: SEC; gel permeation of 35S-labeled in vitro translation mixture on Sephacryl S200HR in PBS, calibrated with lysozyme and BSA; pentamer and monomer peaks. (In general: Size exclusion chromatography separates by hydrodynamic size, large species first.)

The target of experiment [2] is 35S-labeled full-length Vpu protein, in vitro translated (gel permeation) (HIV-1, isolate not stated (NL4-3 and R5 cloned)). The experiment is described as above.
The target of experiment [3] is Vpu fused to ECFP or to EYFP (HIV-1, isolate not stated (NL4-3 and R5 cloned)). The experiment in a line: FRET or BRET; acceptor photobleaching FRET of ECFP-Vpu and EYFP-Vpu in live U2-OS cells, regions that appeared to be Golgi or unidentified vesicles. For orientation: BRET reads energy transfer from a luciferase to a nearby fluorophore.
For experiment [4] the target is unchanged. Description: FRET or BRET; acceptor photobleaching FRET of ECFP-Vpu and EYFP-Vpu in live COS-1 cells with low expression, punctate and vesicular distribution.

In general, stoichiometry N refers to the number of molecules, sites or subunits per partner or assembly. In the case of “35S-labeled Vpu TM domain, in vitro translated (gel permeation) (domain or fragment)”, in experiment [1], the percent of the radioactivity in the oligomer peak came to 10% and the stoichiometry N amounted to 5.
For “35S-labeled full-length Vpu protein, in vitro translated (gel permeation) (natural protein)”, in experiment [2], the percent of the radioactivity in the oligomer peak was 10% and the stoichiometry N was 5.
Take “Vpu fused to ECFP or to EYFP (natural protein)”: the FRET efficiency is 26% in experiment [3] and 18.5% in experiment [4].
